One assay concerns the target ERβ (Homo sapiens, UniProt Q92731). The assay can be described thus: Phage ELISA / fingerprint on ER immobilized on biotinylated ERE (Examples 2.3-2.5). Format: binding. Set-up: purchased PanVera Corporation, Madison, WI; key: semiquantitative scale of 0 to 7+; 1+: semiquantitative scale of 0 to 7+; 2+: semiquantitative scale of 0 to 7+; 3+: semiquantitative scale of 0 to 7+; 4+: semiquantitative scale of 0 to 7+; 5+: semiquantitative scale of 0 to 7+; 6+: semiquantitative scale of 0 to 7+; semiquantitative scale of 0 to 7+. As to conditions: for binding activity, ERβ and Estradiol: ERβ and Estradiol (1 µM); for binding activity, ERβ and tamoxifen: ERβ and tamoxifen (4-OH tamoxifen, 1 µM). (In general: ELISA stands for enzyme-linked immunosorbent assay.)

The target in another assay is T1, ERα (Homo sapiens, UniProt P03372).
T1 sequence (P03372 1-595): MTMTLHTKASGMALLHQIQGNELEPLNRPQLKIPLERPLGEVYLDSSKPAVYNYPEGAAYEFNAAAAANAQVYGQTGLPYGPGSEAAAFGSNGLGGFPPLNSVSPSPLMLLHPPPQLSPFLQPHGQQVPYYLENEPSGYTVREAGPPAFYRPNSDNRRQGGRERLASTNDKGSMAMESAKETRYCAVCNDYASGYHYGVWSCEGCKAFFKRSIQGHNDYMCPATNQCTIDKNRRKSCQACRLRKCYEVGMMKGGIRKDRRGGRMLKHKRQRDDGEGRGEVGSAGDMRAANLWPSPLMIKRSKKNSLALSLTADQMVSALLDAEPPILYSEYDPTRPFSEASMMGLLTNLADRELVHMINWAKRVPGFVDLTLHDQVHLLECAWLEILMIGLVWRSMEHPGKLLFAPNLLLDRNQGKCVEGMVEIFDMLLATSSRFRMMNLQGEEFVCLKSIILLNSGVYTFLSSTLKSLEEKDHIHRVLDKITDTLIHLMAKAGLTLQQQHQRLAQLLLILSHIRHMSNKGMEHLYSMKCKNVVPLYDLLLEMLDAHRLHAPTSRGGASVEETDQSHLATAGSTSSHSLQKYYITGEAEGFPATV
The description is as above. To be noted: for binding activity, ERα and estradiol: ERα and estradiol (1 µM); for binding activity, ERα and tamoxifen: ERα and tamoxifen (4-OH tamoxifen, 1 µM). In kind it is binding. Set-up: purchased PanVera Corporation, Madison, WI; key to binding activity, ERα and buffer / binding activity, ERα and estradiol / binding activity, ERα and tamoxifen / binding of peptide, Class Specific Fingerprint on ERα: semiquantitative scale of 0 to 7+; 1+: semiquantitative scale of 0 to 7+; 2+: semiquantitative scale of 0 to 7+; 3+: semiquantitative scale of 0 to 7+; 4+: semiquantitative scale of 0 to 7+; 5+: semiquantitative scale of 0 to 7+; 6+: semiquantitative scale of 0 to 7+; semiquantitative scale of 0 to 7+.

Chain of ERβ (Q92731 whole entry): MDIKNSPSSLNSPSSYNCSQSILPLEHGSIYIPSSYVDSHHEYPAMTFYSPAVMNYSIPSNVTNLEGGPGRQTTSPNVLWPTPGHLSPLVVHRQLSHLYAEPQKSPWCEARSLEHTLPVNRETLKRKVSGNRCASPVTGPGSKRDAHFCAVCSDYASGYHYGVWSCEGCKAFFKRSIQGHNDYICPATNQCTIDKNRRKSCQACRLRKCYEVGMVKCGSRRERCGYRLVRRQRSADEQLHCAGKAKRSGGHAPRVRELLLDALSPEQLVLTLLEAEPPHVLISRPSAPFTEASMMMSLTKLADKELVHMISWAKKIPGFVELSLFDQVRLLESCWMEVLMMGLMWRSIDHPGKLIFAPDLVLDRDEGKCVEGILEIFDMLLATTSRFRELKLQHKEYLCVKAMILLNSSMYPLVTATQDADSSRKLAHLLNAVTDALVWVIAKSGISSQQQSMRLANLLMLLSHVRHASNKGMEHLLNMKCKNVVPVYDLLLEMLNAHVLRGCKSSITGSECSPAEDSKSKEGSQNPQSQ

For the sequence SRNLLCLLDQEACSR [Peptide 17E-β], in the assay with ERβ, the “binding activity, ERβ and Estradiol” value is listed as 7+; the “binding activity, ERβ and buffer” value is on record as 3+; the “binding activity, ERβ and tamoxifen” value is on record as 1+. Moreover, in the assay with ERα, the “binding activity, ERα and buffer” value is 5+; the “binding activity, ERα and estradiol” value is 4+; the “binding activity, ERα and tamoxifen” value is listed as 4+.
In the case of SRPEGSSWLLHYLSR [Peptide 24E-β], in the assay with ERβ, the “binding activity, ERβ and Estradiol” value is listed as 7+; the “binding activity, ERβ and buffer” value is listed as 5+; the “binding activity, ERβ and tamoxifen” value is recorded as 2+. In addition, in the assay with ERα, the “binding activity, ERα and buffer” value is 5+; the “binding activity, ERα and estradiol” value is 6+; the “binding activity, ERα and tamoxifen” value is on record as 4+.
Take SRPGCLRGVWCLADTPPSR [Peptide 20t-β]: in the assay with ERβ, the “binding activity, ERβ and Estradiol” value is 6+; the “binding activity, ERβ and buffer” value is on record as 7+; the “binding activity, ERβ and tamoxifen” value was 7+. In addition, in the assay with ERα, the “binding activity, ERα and buffer” value was 2+; the “binding activity, ERα and estradiol” value is 2+; the “binding activity, ERα and tamoxifen” value is given as 3+.
SRPYCLGDVWCLDSR [Peptide 2t-β]: in the assay with ERβ, the “binding activity, ERβ and Estradiol” value is 6+; the “binding activity, ERβ and buffer” value is on record as 7+; the “binding activity, ERβ and tamoxifen” value is reported as 7+. Also, in the assay with ERα, the “binding activity, ERα and buffer” value is listed as 2+; the “binding activity, ERα and estradiol” value is 2+; the “binding activity, ERα and tamoxifen” value is on record as 3+.
With SRSPILWHLLQDGSR [Peptide 10E-β], in the assay with ERβ, the “binding activity, ERβ and Estradiol” value is recorded as 7+; the “binding activity, ERβ and buffer” value is recorded as 4+; the “binding activity, ERβ and tamoxifen” value is on record as 2+. Besides, in the assay with ERα, the “binding activity, ERα and buffer” value is 5+; the “binding activity, ERα and estradiol” value is 6+; the “binding activity, ERα and tamoxifen” value was 4+.
Turning to SRWWLDDHELLLYSSR [Peptide 26E-β], in the assay with ERβ, the “binding activity, ERβ and Estradiol” value was 7+; the “binding activity, ERβ and buffer” value was 5+; the “binding activity, ERβ and tamoxifen” value is listed as 2+. For the same sequence, in the assay with ERα, the “binding activity, ERα and buffer” value is reported as 6+; the “binding activity, ERα and estradiol” value is reported as 4+; the “binding activity, ERα and tamoxifen” value is on record as 5+.
With SSAGLLEDMLRSRSR [Peptide 21E-β], in the assay with ERβ, the “binding activity, ERβ and Estradiol” value was 7+; the “binding activity, ERβ and buffer” value was 3+; the “binding activity, ERβ and tamoxifen” value is recorded as 1+. Further, in the assay with ERα, the “binding activity, ERα and buffer” value was 4+; the “binding activity, ERα and estradiol” value is on record as 5+; the “binding activity, ERα and tamoxifen” value is reported as 3+.
In the case of SSARPWWLQFEGSSR [Peptide 7t-β], in the assay with ERβ, the “binding activity, ERβ and Estradiol” value was 7+; the “binding activity, ERβ and buffer” value was 7+; the “binding activity, ERβ and tamoxifen” value is reported as 7+. In the assay with ERα, the “binding activity, ERα and buffer” value is reported as 2+; the “binding activity, ERα and estradiol” value was 2+; the “binding activity, ERα and tamoxifen” value is reported as 2+.
As to SSDLHRDCLGVWCLSR [Peptide 17t-β], in the assay with ERβ, the “binding activity, ERβ and Estradiol” value is on record as 7+; the “binding activity, ERβ and buffer” value was 7+; the “binding activity, ERβ and tamoxifen” value is reported as 7+. Also, in the assay with ERα, the “binding activity, ERα and buffer” value is 1+; the “binding activity, ERα and estradiol” value is reported as 2+; the “binding activity, ERα and tamoxifen” value is given as 2+.
Consider SSDLYSQMREFFQINLSR [Peptide 23t-β], for which, in the assay with ERβ, the “binding activity, ERβ and Estradiol” value was 6+; the “binding activity, ERβ and buffer” value is recorded as 6+; the “binding activity, ERβ and tamoxifen” value was 7+. Further, in the assay with ERα, the “binding activity, ERα and buffer” value was 4+; the “binding activity, ERα and estradiol” value is 4+; the “binding activity, ERα and tamoxifen” value was 6+.
On to SSDTRSRLYELLSSSYTSR [Peptide 5E-β], for which, in the assay with ERβ, the “binding activity, ERβ and Estradiol” value is 7+; the “binding activity, ERβ and buffer” value is given as 5+; the “binding activity, ERβ and tamoxifen” value is reported as 2+. Further, in the assay with ERα, the “binding activity, ERα and buffer” value is reported as 4+; the “binding activity, ERα and estradiol” value is listed as 6+; the “binding activity, ERα and tamoxifen” value is 4+.
As to SSGLPPNFERMLKSR [Peptide 6b-β], in the assay with ERβ, the “binding activity, ERβ and Estradiol” value was 2+; the “binding activity, ERβ and buffer” value was 6+; the “binding activity, ERβ and tamoxifen” value is on record as 2+. Also, in the assay with ERα, the “binding activity, ERα and buffer” value is on record as 5+; the “binding activity, ERα and estradiol” value was 3+; the “binding activity, ERα and tamoxifen” value is reported as 3+.
Turning to SSGPFYVGGMLWPADCLSR [Peptide 10t-β], in the assay with ERβ, the “binding activity, ERβ and Estradiol” value was 2+; the “binding activity, ERβ and buffer” value is 4+; the “binding activity, ERβ and tamoxifen” value is given as 7+. Also, in the assay with ERα, the “binding activity, ERα and buffer” value is 4+; the “binding activity, ERα and estradiol” value is 3+; the “binding activity, ERα and tamoxifen” value is 6+.
On to SSGPWLMHYLGGGSR [Peptide 7b-β], for which, in the assay with ERβ, the “binding activity, ERβ and Estradiol” value was 7+; the “binding activity, ERβ and buffer” value is 7+; the “binding activity, ERβ and tamoxifen” value was 2+. In the assay with ERα, the “binding activity, ERα and buffer” value is 2+; the “binding activity, ERα and estradiol” value is 4+; the “binding activity, ERα and tamoxifen” value is 3+.
As to SSGSSAGRLMMLLQDGVSR [Peptide 13E-β], in the assay with ERβ, the “binding activity, ERβ and Estradiol” value is listed as 6+; the “binding activity, ERβ and buffer” value was 2+; the “binding activity, ERβ and tamoxifen” value was 1+. In the assay with ERα, the “binding activity, ERα and buffer” value is 5+; the “binding activity, ERα and estradiol” value was 4+; the “binding activity, ERα and tamoxifen” value is 5+.
On to SSHCHTRLCSLLTSR [Peptide 15E-β], for which, in the assay with ERβ, the “binding activity, ERβ and Estradiol” value is 7+; the “binding activity, ERβ and buffer” value is reported as 4+. Further, in the assay with ERα, the “binding activity, ERα and buffer” value was 6+; the “binding activity, ERα and estradiol” value is reported as 6+; the “binding activity, ERα and tamoxifen” value is 5+.
Consider SSIKDFPNLISLLSR [Peptide 12E-β], for which, in the assay with ERβ, the “binding activity, ERβ and Estradiol” value is on record as 7+; the “binding activity, ERβ and buffer” value is reported as 4+; the “binding activity, ERβ and tamoxifen” value is on record as 1+. For the same sequence, in the assay with ERα, the “binding activity, ERα and buffer” value is 2+; the “binding activity, ERα and estradiol” value is on record as 2+; the “binding activity, ERα and tamoxifen” value is reported as 2+.
Regarding SSILERLLGGGSAETV [Peptide 9E-β], in the assay with ERβ, the “binding activity, ERβ and Estradiol” value is on record as 7+; the “binding activity, ERβ and buffer” value is reported as 4+; the “binding activity, ERβ and tamoxifen” value is 1+. In the assay with ERα, the “binding activity, ERα and buffer” value is on record as 3+; the “binding activity, ERα and estradiol” value is on record as 4+.
For SSIPPRSWWLSQLSR [Peptide 19b-β], in the assay with ERβ, the “binding activity, ERβ and Estradiol” value was 6+; the “binding activity, ERβ and buffer” value was 7+; the “binding activity, ERβ and tamoxifen” value is on record as 7+. In the assay with ERα, the “binding activity, ERα and buffer” value is on record as 5+; the “binding activity, ERα and estradiol” value is reported as 4+; the “binding activity, ERα and tamoxifen” value is 4+.
As to SSISTYHMGEWFYAMLSSR [Peptide 22t-β], in the assay with ERβ, the “binding activity, ERβ and Estradiol” value is 4+; the “binding activity, ERβ and buffer” value is reported as 5+; the “binding activity, ERβ and tamoxifen” value is 7+. Besides, in the assay with ERα, the “binding activity, ERα and buffer” value is 3+; the “binding activity, ERα and estradiol” value is 4+; the “binding activity, ERα and tamoxifen” value was 6+.

The values are drawn from patent publication EP1073891B1, “METHOD OF PREDICTING RECEPTOR MODULATING ACTIVITY” (Duke University, priority 1998, dated 1999).
